Data reported in the supplement of paper PMC7877785.
± gives the uncertainty stated by the source.

Experiment: self-splicing fitness, log relative to wild type (ln ratio); higher = more splicing; Tetrahymena group I intron in knt gene, E. coli kanamycin selection, DiMSum; sequences stand for … in CUCUCU…GGAGGGAAAAGUUAUCAGGCAUGCACCUGGUAGCUAGUCUUUAAACCAAUAGAUUGCAUCGGUUUAAAAGGCAAGACCGUCAAAUUGCGGGAAAGGGGUCAACAGCCGUUCAGUACCAAGUCUCAGGGGAAACUUUGAGAUGGCCUUGCAAAGGGUAUGGUAAUAAGCUGACGGACAUGGUCCUAACCACGCAGCCAAGUCCUAAGUCAACAGAUCUUCUGUUGAUAUGGAUGCAGUUCACAGACUAAAUGUCGGUCGGGGAAGAUGUAUUCUUCUCAUAAGAUAUAGUCGGACCUCUCCUUAAUGGGAGCUAGCGGAUGAAGUGAUGCAACACUGGAGCCGCUGGGAACUAAUUUGUAUGCGAAAGUAUAUUGAUUAGUUUUGGAGUACUCGUGGUCG
Procedure, shortened: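 Fitness was computed with DiMSum as the error-weighted combination of replicate fold changes, kanamycin versus none, each normalised to wild type. The library randomised all eight intron nucleotides of the P1ex region, with the intron placed in the knt kanamycin-resistance gene on pET-22b(+) in E. coli BL21(DE3). Six replicate transformations were grown overnight at 37°C or 30°C on LB agar with or without 25 μg/mL kanamycin, plus 100 μg/mL carbenicillin, 50 μM IPTG and 0.2% rhamnose. Pooled colonies were amplicon-sequenced on an Illumina HiSeq 2500.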

Sequence | self-splicing fitness (ln) (30 °C) | self-splicing fitness (ln) (37 °C)
GUCCAGCAAUAUUACGGGAG | -1.15 ± 0.063 | -0.322 ± 0.082
GUCCAGCAAUAUUACGGUUA | -0.0348 ± 0.05 | 0.165 ± 0.055
GUCCAGCAAUAUUACGGUUC | -0.386 ± 0.049 | 0.219 ± 0.065
GUCCAGCAAUAUUACGUCAG | -4.93 ± 0.28 | -2.16 ± 0.14
GUCCAGCAAUAUUACGUGAU | -0.729 ± 0.047 | -0.345 ± 0.071
GUCCAGCAAUAUUACGUUCU | -2.35 ± 0.09 | -0.777 ± 0.08
GUCCAGCAAUAUUACGUUUC | -0.538 ± 0.056 | -0.05 ± 0.074
GUCGAGCAAUAUUACGAAAG | -2.57 ± 0.29 | -2.2 ± 0.35
GUCGAGCAAUAUUACGAGCG | -2.88 ± 0.19 | -1.03 ± 0.23
GUCGAGCAAUAUUACGAGUC | -3.73 ± 0.25 | -2.2 ± 0.18
GUCGAGCAAUAUUACGAGUG | -1.62 ± 0.088 | -1.85 ± 0.11
GUCGAGCAAUAUUACGAGUU | -2.66 ± 0.18 | -2.52 ± 0.28
GUCGAGCAAUAUUACGAUAU | -1.44 ± 0.13 | -0.298 ± 0.17
GUCGAGCAAUAUUACGCCCA | – | -0.376 ± 0.33
GUCGAGCAAUAUUACGCGAC | -2.57 ± 0.2 | -2.12 ± 0.29
GUCGAGCAAUAUUACGGAGA | -2.84 ± 0.23 | -2.47 ± 0.31
GUCGAGCAAUAUUACGGAUC | -1.36 ± 0.087 | -0.586 ± 0.097
GUCGAGCAAUAUUACGGCAU | -1.04 ± 0.067 | 0.111 ± 0.083
GUCGAGCAAUAUUACGGGAC | -3.05 ± 0.22 | -2.05 ± 0.21
GUCGAGCAAUAUUACGGGGG | -2.05 ± 0.29 | –
GUCGAGCAAUAUUACGGGUA | -2.65 ± 0.27 | -2.91 ± 0.22
GUCGAGCAAUAUUACGGUGG | -3.54 ± 0.27 | -2.24 ± 0.22
GUCGAGCAAUAUUACGUCGU | -0.515 ± 0.12 | -0.592 ± 0.17
GUCGAGCAAUAUUACGUGAU | -2.2 ± 0.15 | -2.11 ± 0.18
GUCGAGCAAUAUUACGUUAA | – | -2.06 ± 0.47
GUCGAGCAAUAUUACGUUCA | -0.837 ± 0.084 | -0.462 ± 0.086
GUCGAGCAAUAUUACGUUUG | -2.54 ± 0.28 | -2.11 ± 0.24

Sequence | self-splicing fitness (ln) (30 °C) | self-splicing fitness (ln) (37 °C)
GUCUAGCAAUAUUACGAAAA | -2.3 ± 0.26 | -1.26 ± 0.22
GUCUAGCAAUAUUACGAAAG | – | -2.42 ± 0.39
GUCUAGCAAUAUUACGAGAA | -1.8 ± 0.39 | -0.829 ± 0.27
GUCUAGCAAUAUUACGAGAG | -2.4 ± 0.17 | -1.33 ± 0.12
GUCUAGCAAUAUUACGAGCA | -1.29 ± 0.24 | -0.906 ± 0.24
GUCUAGCAAUAUUACGAUAG | – | -2.96 ± 0.27
GUCUAGCAAUAUUACGAUAU | -0.897 ± 0.12 | -0.0984 ± 0.12
GUCUAGCAAUAUUACGCCUG | – | -3.47 ± 0.41
GUCUAGCAAUAUUACGGAUC | -1.99 ± 0.28 | -1.85 ± 0.27
GUCUAGCAAUAUUACGGCAG | – | -1.72 ± 0.44
GUCUAGCAAUAUUACGGCCA | -1.87 ± 0.35 | -0.587 ± 0.22
GUCUAGCAAUAUUACGGCCC | -2.32 ± 0.39 | 0.974 ± 0.31
GUCUAGCAAUAUUACGGGAC | – | -1.65 ± 0.45
GUCUAGCAAUAUUACGGUAA | -1.67 ± 0.11 | -0.172 ± 0.11
GUCUAGCAAUAUUACGGUGG | -2.87 ± 0.17 | -3.96 ± 0.46
GUCUAGCAAUAUUACGUACU | -0.946 ± 0.11 | -0.0535 ± 0.1
GUCUAGCAAUAUUACGUAGA | -1.69 ± 0.14 | -0.93 ± 0.2
GUCUAGCAAUAUUACGUAGC | -1.45 ± 0.15 | 0.302 ± 0.2
GUCUAGCAAUAUUACGUCCU | -0.102 ± 0.16 | -0.136 ± 0.14
GUGAAGCAAUAUUACGAACA | -0.242 ± 0.076 | 0.0414 ± 0.11
GUGAAGCAAUAUUACGAAGG | -1.91 ± 0.14 | -0.854 ± 0.17
GUGAAGCAAUAUUACGACAC | -1.1 ± 0.12 | 0.386 ± 0.18
GUGAAGCAAUAUUACGAGAG | -2.92 ± 0.11 | -1.7 ± 0.1
GUGAAGCAAUAUUACGAGGG | -3.74 ± 0.25 | -1.29 ± 0.13
GUGAAGCAAUAUUACGAUUA | 0.198 ± 0.084 | -0.124 ± 0.13
GUGAAGCAAUAUUACGCAGU | -2.6 ± 0.22 | -1.02 ± 0.19
GUGAAGCAAUAUUACGCCAC | -2.66 ± 0.5 | –

Sequence | self-splicing fitness (ln) (30 °C) | self-splicing fitness (ln) (37 °C)
GUGAAGCAAUAUUACGCCUU | -0.0499 ± 0.15 | -0.45 ± 0.17
GUGAAGCAAUAUUACGCGUU | -3.59 ± 0.2 | -2.02 ± 0.21
GUGAAGCAAUAUUACGCUUC | -4.23 ± 0.32 | -2.41 ± 0.3
GUGAAGCAAUAUUACGGCAG | -2.32 ± 0.13 | -1.06 ± 0.16
GUGAAGCAAUAUUACGGCGU | 0.663 ± 0.12 | 0.727 ± 0.15
GUGAAGCAAUAUUACGGUAG | -1.79 ± 0.087 | -0.687 ± 0.1
GUGAAGCAAUAUUACGGUCA | -0.465 ± 0.11 | 0.46 ± 0.12
GUGAAGCAAUAUUACGGUCG | -0.124 ± 0.063 | -0.0595 ± 0.085
GUGAAGCAAUAUUACGUAUA | -1.53 ± 0.077 | -0.347 ± 0.1
GUGAAGCAAUAUUACGUGCA | 0.391 ± 0.085 | -0.0531 ± 0.11
GUGCAGCAAUAUUACGAAAC | -1.82 ± 0.1 | -1.26 ± 0.095
GUGCAGCAAUAUUACGACCG | -2.18 ± 0.2 | -1.5 ± 0.27
GUGCAGCAAUAUUACGACCU | -1.51 ± 0.27 | -0.504 ± 0.24
GUGCAGCAAUAUUACGAGCG | -0.973 ± 0.072 | -0.518 ± 0.083
GUGCAGCAAUAUUACGCCGG | -2.21 ± 0.41 | –
GUGCAGCAAUAUUACGCCUC | -0.807 ± 0.17 | 0.123 ± 0.21
GUGCAGCAAUAUUACGCGCC | -3.58 ± 0.4 | -1.95 ± 0.33
GUGCAGCAAUAUUACGCGGG | -2.81 ± 0.36 | -1.03 ± 0.2
GUGCAGCAAUAUUACGGAAG | -3.19 ± 0.24 | -1.77 ± 0.25
GUGCAGCAAUAUUACGGGAC | -2.09 ± 0.19 | -2.82 ± 0.48
GUGCAGCAAUAUUACGGGCA | -2.08 ± 0.15 | -1.23 ± 0.15
GUGCAGCAAUAUUACGGGUC | -2.38 ± 0.13 | -0.803 ± 0.14
GUGCAGCAAUAUUACGGUGA | -0.753 ± 0.095 | 0.095 ± 0.12
GUGCAGCAAUAUUACGUCAA | -1.6 ± 0.15 | -0.634 ± 0.12
GUGCAGCAAUAUUACGUUAC | -3.66 ± 0.33 | -2.93 ± 0.38
